In patent publication US20220306765A1 (SUZHOU TRANSCENTA THERAPEUTICS, published 2022):

Tests used:
human CLDN18.1 = molecular target: T1, human CLDN18.1 (human, UniProt P56856 1-261); test: FACS, HEK293-CLDN18.1 cells
T1 construct: on HEK293-CLDN18.1 cells; also called Claudin-18 splice variant 1; NP_057453.1

human CLDN18.2-mRFP Y46A = human CLDN18.2-mRFP Y46A (human); test: FACS, transfected HEK293, 10 µg/ml antibody;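 also: antibody binding detected by flow cytometry with FITC-labelled anti-human IgG secondary, gated on RFP-positive cells, mutant signal relative to wild-type CLDN18.2-mRFP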
Experimental: (§1) The transfected HEK293-CLDN18.2 or HEK293-CLDN18.1 cell were resuspended in PBS with 2% BSA at density of 10\hat{ }5/well, 100 μl/well. […] Next, cells were washed 3 times by FACS washing buffer and incubated with 100 μl/well goat anti-hIgG (H+L)-FITC (1:200 dilution) at 4° C. for another 30 min. Finally, cells were washed 3 times by FACS washing buffer and analyzed by Flow Cytometry. To analyze binding to CLDN18.2 transfected cells, the RFP positive cells were used for control gating.
(§2) Subsequently, these plasmids of mutants and wild-type CLDN18.2-mRFP were transfected into HEK293 cell.

human CLDN18.2-mRFP M75A = human CLDN18.2-mRFP M75A (human); test: FACS, transfected HEK293, 10 µg/ml antibody;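 also: antibody binding detected by flow cytometry with FITC-labelled anti-human IgG secondary, gated on RFP-positive cells, mutant signal relative to wild-type CLDN18.2-mRFP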
Experimental: as §1, §2

human CLDN18.2-mRFP V43A = human CLDN18.2-mRFP V43A (human); test: FACS, transfected HEK293, 10 µg/ml antibody;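 also: antibody binding detected by flow cytometry with FITC-labelled anti-human IgG secondary, gated on RFP-positive cells, mutant signal relative to wild-type CLDN18.2-mRFP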
Experimental: as §1, §2

human CLDN18.2-mRFP S31A = human CLDN18.2-mRFP S31A (human); test: FACS, transfected HEK293, 10 µg/ml antibody;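 also: antibody binding detected by flow cytometry with FITC-labelled anti-human IgG secondary, gated on RFP-positive cells, mutant signal relative to wild-type CLDN18.2-mRFP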
Experimental: as §1, §2

human CLDN18.2-mRFP R51A = human CLDN18.2-mRFP R51A (human); test: FACS, transfected HEK293, 10 µg/ml antibody
Experimental: as §1, §2

human CLDN18.2-mRFP R55A = human CLDN18.2-mRFP R55A (human); test: FACS, transfected HEK293, 10 µg/ml antibody
Experimental: as §1, §2

human CLDN18.2-mRFP L69A = human CLDN18.2-mRFP L69A (human); test: FACS, transfected HEK293, 10 µg/ml antibody
Experimental: as §1, §2

human CLDN18.2-mRFP T61A = human CLDN18.2-mRFP T61A (human); test: FACS, transfected HEK293, 10 µg/ml antibody
Experimental: as §1, §2

human CLDN18.2-mRFP E56A = human CLDN18.2-mRFP E56A (human); test: FACS, transfected HEK293, 10 µg/ml antibody
Experimental: as §1, §2

human CLDN18.2-mRFP Q33A = human CLDN18.2-mRFP Q33A (human); test: FACS, transfected HEK293, 10 µg/ml antibody
Experimental: as §1, §2

human CLDN18.2-mRFP L76A = human CLDN18.2-mRFP L76A (human); test: FACS, transfected HEK293, 10 µg/ml antibody
Experimental: as §1, §2

human CLDN18.2-mRFP L35A = human CLDN18.2-mRFP L35A (human); test: FACS, transfected HEK293, 10 µg/ml antibody
Experimental: as §1, §2

human CLDN18.2-mRFP N45A = human CLDN18.2-mRFP N45A (human); test: FACS, transfected HEK293, 10 µg/ml antibody
Experimental: as §1, §2

human CLDN18.2-mRFP T41A = human CLDN18.2-mRFP T41A (human); test: FACS, transfected HEK293, 10 µg/ml antibody
Experimental: as §1, §2

human CLDN18.2-mRFP Y36A = human CLDN18.2-mRFP Y36A (human); test: FACS, transfected HEK293, 10 µg/ml antibody
Experimental: as §1, §2

human CLDN18.2-mRFP E62A = human CLDN18.2-mRFP E62A (human); test: FACS, transfected HEK293, 10 µg/ml antibody
Experimental: as §1, §2

human CLDN18.2 = molecular target: T2, human CLDN18.2 (human); test: FACS, NUGC4 cells
T2 construct: also called hCLDN18.2; Claudin-18 splice variant 2

Sequence of human CLDN18.2-mRFP L76A (human) (chain, as listed by the source L76A L76A limits assumed): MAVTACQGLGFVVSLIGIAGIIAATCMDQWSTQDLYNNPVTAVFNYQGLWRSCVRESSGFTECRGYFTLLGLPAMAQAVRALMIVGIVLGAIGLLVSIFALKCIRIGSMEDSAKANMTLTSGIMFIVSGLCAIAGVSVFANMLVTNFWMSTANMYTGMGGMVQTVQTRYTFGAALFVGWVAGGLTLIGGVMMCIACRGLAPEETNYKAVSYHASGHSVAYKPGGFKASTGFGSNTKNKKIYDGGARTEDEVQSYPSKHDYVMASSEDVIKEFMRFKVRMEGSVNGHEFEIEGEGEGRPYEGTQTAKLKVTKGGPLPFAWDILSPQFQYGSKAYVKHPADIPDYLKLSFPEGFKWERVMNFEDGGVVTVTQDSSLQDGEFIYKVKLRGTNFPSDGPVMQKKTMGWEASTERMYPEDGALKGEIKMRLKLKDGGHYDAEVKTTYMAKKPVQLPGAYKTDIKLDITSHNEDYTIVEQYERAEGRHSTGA
Sequence of human CLDN18.2-mRFP T61A (human) (chain, as listed by the source T61A T61A limits assumed): as the sequence (chain, as listed by the source L76A L76A limits assumed) above, with T61A, A76L counted along it
T1 sequence (P56856 whole entry, canonical isoform): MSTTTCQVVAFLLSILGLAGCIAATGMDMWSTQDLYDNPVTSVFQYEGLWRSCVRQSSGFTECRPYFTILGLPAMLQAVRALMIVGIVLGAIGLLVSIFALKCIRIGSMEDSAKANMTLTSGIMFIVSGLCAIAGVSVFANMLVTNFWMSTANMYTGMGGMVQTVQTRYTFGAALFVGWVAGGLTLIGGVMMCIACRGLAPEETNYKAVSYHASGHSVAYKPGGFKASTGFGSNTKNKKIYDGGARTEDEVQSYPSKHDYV
Sequence of human CLDN18.2-mRFP Y36A (human) (chain, as listed by the source Y36A Y36A limits assumed): as the sequence (chain, as listed by the source L76A L76A limits assumed) above, with Y36A, A76L counted along it
Sequence of human CLDN18.2-mRFP T41A (human) (chain, as listed by the source T41A T41A limits assumed): as the sequence (chain, as listed by the source L76A L76A limits assumed) above, with T41A, A76L counted along it
Sequence of human CLDN18.2-mRFP E62A (human) (chain, as listed by the source E62A E62A limits assumed): as the sequence (chain, as listed by the source L76A L76A limits assumed) above, with E62A, A76L counted along it
Sequence of human CLDN18.2-mRFP N45A (human) (chain, as listed by the source N45A N45A limits assumed): as the sequence (chain, as listed by the source L76A L76A limits assumed) above, with N45A, A76L counted along it
Sequence of human CLDN18.2-mRFP E56A (human) (chain, as listed by the source E56A E56A limits assumed): as the sequence (chain, as listed by the source L76A L76A limits assumed) above, with E56A, A76L counted along it
Sequence of human CLDN18.2-mRFP R55A (human) (chain, as listed by the source R55A R55A limits assumed): as the sequence (chain, as listed by the source L76A L76A limits assumed) above, with R55A, A76L counted along it
Sequence of human CLDN18.2-mRFP L69A (human) (chain, as listed by the source L69A L69A limits assumed): as the sequence (chain, as listed by the source L76A L76A limits assumed) above, with L69A, A76L counted along it
Sequence of human CLDN18.2-mRFP S31A (human) (chain, as listed by the source S31A S31A limits assumed): as the sequence (chain, as listed by the source L76A L76A limits assumed) above, with S31A, A76L counted along it
Sequence of human CLDN18.2-mRFP Y46A (human) (chain, as listed by the source Y46A Y46A limits assumed): as the sequence (chain, as listed by the source L76A L76A limits assumed) above, with Y46A, A76L counted along it
Sequence of human CLDN18.2-mRFP Q33A (human) (chain, as listed by the source Q33A Q33A limits assumed): as the sequence (chain, as listed by the source L76A L76A limits assumed) above, with Q33A, A76L counted along it
Sequence of human CLDN18.2-mRFP V43A (human) (chain, as listed by the source V43A V43A limits assumed): as the sequence (chain, as listed by the source L76A L76A limits assumed) above, with V43A, A76L counted along it
Sequence of human CLDN18.2-mRFP L35A (human) (chain, as listed by the source L35A L35A limits assumed): as the sequence (chain, as listed by the source L76A L76A limits assumed) above, with L35A, A76L counted along it
Sequence of human CLDN18.2-mRFP R51A (human) (chain, as listed by the source R51A R51A limits assumed): as the sequence (chain, as listed by the source L76A L76A limits assumed) above, with R51A, A76L counted along it
Sequence of human CLDN18.2-mRFP M75A (human) (chain, as listed by the source M75A M75A limits assumed): as the sequence (chain, as listed by the source L76A L76A limits assumed) above, with M75A, A76L counted along it

binding result (human CLDN18.1): no binding
binding percentage vs wild-type CLDN18.2 (human CLDN18.2-mRFP Y46A): 15%
binding percentage vs wild-type CLDN18.2 (human CLDN18.2-mRFP M75A): 73.6%
binding percentage vs wild-type CLDN18.2 (human CLDN18.2-mRFP V43A): 59.4%
binding percentage vs wild-type CLDN18.2 (human CLDN18.2-mRFP S31A): 76.8%
binding percentage vs wild-type CLDN18.2 (human CLDN18.2-mRFP R51A): 22.1%
binding percentage vs wild-type CLDN18.2 (human CLDN18.2-mRFP R55A): 49.7%
binding percentage vs wild-type CLDN18.2 (human CLDN18.2-mRFP L69A): 54.8%
binding percentage vs wild-type CLDN18.2 (human CLDN18.2-mRFP T61A): 51.6%
binding percentage vs wild-type CLDN18.2 (human CLDN18.2-mRFP E56A): 21.9%
binding percentage vs wild-type CLDN18.2 (human CLDN18.2-mRFP Q33A): 59.8%
binding percentage vs wild-type CLDN18.2 (human CLDN18.2-mRFP L76A): 52.1%
binding percentage vs wild-type CLDN18.2 (human CLDN18.2-mRFP L35A): 75.4%
binding percentage vs wild-type CLDN18.2 (human CLDN18.2-mRFP N45A): 35.2%
binding percentage vs wild-type CLDN18.2 (human CLDN18.2-mRFP T41A): 41.6%
binding percentage vs wild-type CLDN18.2 (human CLDN18.2-mRFP Y36A): 78%
binding percentage vs wild-type CLDN18.2 (human CLDN18.2-mRFP E62A): 23.1%
EC50 (human CLDN18.2): 19.1 µg/mL
B1: 59A9-C (antibody, human IgG1, V domains shown)
VH: QITQKESGPGILQPSQTLSLTCSLSGFSLSTYFIGVGWIRQPSGKGLEWLAHIWWNDNKYYNTALKSRLTISKDTSNNQVFLKIASVDTADTATYYCARMGSGAWFTYWGQGTLVTVSA
VL: DIVMTQSPSSLTVTAGEKVTMSCKSSQSLLNSGNQKNYLTWYQQKPGQPPKLLIYWASTRESGVPDRFTGSGSGTDFTLTISSVQAEDLAVYYCQNDYYYPLTFGSGTKLEIK
notes: also called chimeric 59A9
